T1: FcγRIIb extracellular domain with C-terminal His tag (human, UniProt P31994 43-217)
T1 construct: extracellular domain; Soluble receptor expressed in FreeStyle293 cells, used as analyte in Biacore; also called FcgRIIb; 2b
T1 sequence (looked up): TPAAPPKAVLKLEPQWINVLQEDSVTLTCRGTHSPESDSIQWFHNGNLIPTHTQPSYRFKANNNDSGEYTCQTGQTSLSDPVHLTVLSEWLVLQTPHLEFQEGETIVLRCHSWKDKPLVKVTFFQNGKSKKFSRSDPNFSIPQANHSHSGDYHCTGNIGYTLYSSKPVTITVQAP

B1: GpH7-A5/GpH7-B3 variant L234_09D/GpL16-k0 (antibody, human IgG1, kappa)
heavy 1: not shown
heavy 2: not shown
light: DIVMTQSPLSLPVTPGEPASISCQASESLVHSNRNTYLHWYLQKPGQSPQLLIYKVSNRFSGVPDRFSGSGSGTDFTLKISRVEAEDVGVYYCSQNTHVPPTFGQGTKVEIERTVAAPSVFIFPPSDEQLKSGTASVVCLLNNFYPREAKVQWKVDNALQSGNSQESVTEQDSKDSTYSLSSTLTLSKADYEKHKVYACEVTHQGLSSPVTKSFNRGEC
notes: one H chain altered; also called He Ab L234_09D
B2: GpH7-A5/GpH7-B3 variant K334_09D/GpL16-k0 (antibody, human IgG1, kappa)
heavy 1: not shown
heavy 2: not shown
light: B1 light
notes: one H chain altered; also called He Ab K334_09D
B3: GpH7-A5/GpH7-B3 variant S337_04F/GpL16-k0 (antibody, human IgG1, kappa)
heavy 1: not shown
heavy 2: not shown
light: B1 light
notes: one H chain altered; also called He Ab S337_04F
B4: GpH7-A5/GpH7-B3 variant E333_09D/GpL16-k0 (antibody, human IgG1, kappa)
heavy 1: not shown
heavy 2: not shown
light: B1 light
notes: one H chain altered; also called He Ab E333_09D
B5: GpH7-A5/GpH7-B3 variant T335_15Y/GpL16-k0 (antibody, human IgG1, kappa)
heavy 1: not shown
heavy 2: not shown
light: B1 light
notes: one H chain altered; also called He Ab T335_15Y
B6: GpH7-A5/GpH7-B3 variant S298_14T/GpL16-k0 (antibody, human IgG1, kappa)
heavy 1: not shown
heavy 2: not shown
light: B1 light
notes: one H chain altered; also called He Ab S298_14T
B7: GpH7-A5/GpH7-B3 variant T335_10E/GpL16-k0 (antibody, human IgG1, kappa)
heavy 1: not shown
heavy 2: not shown
light: B1 light
notes: one H chain altered; also called He Ab T335_10E
B8: GpH7-A5/GpH7-B3 variant P238_10E/GpL16-k0 (antibody, human IgG1, kappa)
heavy 1: not shown
heavy 2: not shown
light: B1 light
notes: one H chain altered; also called He Ab P238_10E
B9: GpH7-A5/GpH7-B3 variant T335_07I/GpL16-k0 (antibody, human IgG1, kappa)
heavy 1: not shown
heavy 2: not shown
light: B1 light
notes: one H chain altered; also called He Ab T335_07I
B10: GpH7-A5/GpH7-B3 variant S337_15Y/GpL16-k0 (antibody, human IgG1, kappa)
heavy 1: not shown
heavy 2: not shown
light: B1 light
notes: one H chain altered; also called He Ab S337_15Y
B11: GpH7-A5/GpH7-B3 variant I336_06M/GpL16-k0 (antibody, human IgG1, kappa)
heavy 1: not shown
heavy 2: not shown
light: B1 light
notes: one H chain altered; also called He Ab I336_06M
B12: GpH7-A5/GpH7-B3 variant K326_08L/GpL16-k0 (antibody, human IgG1, kappa)
heavy 1: not shown
heavy 2: not shown
light: B1 light
notes: one H chain altered; also called He Ab K326_08L
B13: GpH7-A5/GpH7-B3 variant S298_02A/GpL16-k0 (antibody, human IgG1, kappa)
heavy 1: not shown
heavy 2: not shown
light: B1 light
notes: Heterodimerized anti-glypican-3 IgG1; mutation in the GpH7-B3 chain only; also called He Ab
B14: GpH7-A5/GpH7-B3 variant P271_01G/GpL16-k0 (antibody, human IgG1, kappa)
heavy 1: not shown
heavy 2: not shown
light: B1 light
notes: one H chain altered; also called He Ab P271_01G
B15: GpH7-A5/GpH7-B3 variant S337_14T/GpL16-k0 (antibody, human IgG1, kappa)
heavy 1: not shown
heavy 2: not shown
light: B1 light
notes: one H chain altered; also called He Ab S337_14T
B16: GpH7-A5/GpH7-B3 variant S337_09D/GpL16-k0 (antibody, human IgG1, kappa)
heavy 1: not shown
heavy 2: not shown
light: B1 light
notes: one H chain altered; also called He Ab S337_09D
B17: GpH7-A5/GpH7-B3 variant S324_15Y/GpL16-k0 (antibody, human IgG1, kappa)
heavy 1: not shown
heavy 2: not shown
light: B1 light
notes: one H chain altered; also called He Ab S324_15Y
B18: GpH7-A5/GpH7-B3 variant K326_07I/GpL16-k0 (antibody, human IgG1, kappa)
heavy 1: not shown
heavy 2: not shown
light: B1 light
notes: one H chain altered; also called He Ab K326_07I
B19: GpH7-A5/GpH7-B3 variant S267_09D/GpL16-k0 (antibody, human IgG1, kappa)
heavy 1: not shown
heavy 2: not shown
light: B1 light
notes: one H chain altered; also called He Ab S267_09D
B20: GpH7-A5/GpH7-B3 variant P238_09D/GpL16-k0 (antibody, human IgG1, kappa)
heavy 1: not shown
heavy 2: not shown
light: B1 light
notes: one H chain altered; also called He Ab P238_09D
B21: GpH7-A5/GpH7-B3 variant S337_18N/GpL16-k0 (antibody, human IgG1, kappa)
heavy 1: not shown
heavy 2: not shown
light: B1 light
notes: one H chain altered; also called He Ab S337_18N
B22: GpH7-A5/GpH7-B3 variant T335_19Q/GpL16-k0 (antibody, human IgG1, kappa)
heavy 1: not shown
heavy 2: not shown
light: B1 light
notes: one H chain altered; also called He Ab T335_19Q
B23: GpH7-A5/GpH7-B3 variant I336_03V/GpL16-k0 (antibody, human IgG1, kappa)
heavy 1: not shown
heavy 2: not shown
light: B1 light
notes: one H chain altered; also called He Ab I336_03V

How the values were obtained:
[1] = biological target: FcγRIIIa extracellular domain with C-terminal His tag (human, UniProt P08637 17-208); assay: SPR (Biacore), one H chain altered; HeCon Ab GpH7-A5/GpH7-B3/GpL16-k0 = 100
Target sequence in this assay (P08637 17-208): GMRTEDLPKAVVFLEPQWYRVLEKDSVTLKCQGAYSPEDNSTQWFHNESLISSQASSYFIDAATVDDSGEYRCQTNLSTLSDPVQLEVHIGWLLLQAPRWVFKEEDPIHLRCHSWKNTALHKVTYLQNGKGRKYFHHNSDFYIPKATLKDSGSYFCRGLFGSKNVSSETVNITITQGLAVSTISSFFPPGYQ

[2] = biological target: T2, FcγRIIIa extracellular domain with C-terminal His tag (human, UniProt P08637 17-208); assay: SPR (Biacore); He/Con_3a divided by He/Con_2b (FcγRIIIa against FcγRIIb)
T2 construct: extracellular domain; also called FcgRIIIa; 3a
Experimental: (§1) The heterodimerized antibodies He Abs in which one of the H chains was introduced with an alteration were assayed for their binding activities to each activating FcγR and inhibitory FcγR according to the method described in Example 4. […] The activating FcγRs in FIGS. 26, 27, 28, and 29 are FcγRIa, FcγRIIa (R), FcγRIIa (H), and FcγRIIIa, respectively.
(§2) Analysis of interaction between objective antibody and the FcγR was carried out using Biacore T100 (GE Healthcare). HBS-EP+ (GE Healthcare) was used as the running buffer, and the measurement temperature was set to 25° C. Chips produced by immobilizing the antigen peptide by the amine coupling method to a Series S Sencor Chip CM5 (GE Healthcare), or alternatively, chips produced by allowing preliminarily biotinylated antigen peptides to interact with and immobilize onto a Series S Sensor Chip SA (certified) (GE Healthcare) were used. Antibodies of interest were captured onto an antigen peptide-immobilized chip, and allowed to interact to each FcγR diluted with running buffer. To regenerate and repeatedly use the chip, the antibodies captured on the chip were washed off by reacting 10 mM glycine-HCl, pH 1.5.
T2 sequence (P08637 17-208): as above

[3] = biological target: T1, FcγRIIb extracellular domain with …; assay: SPR (Biacore), antibody captured on antigen peptide chip, FcγR as analyte; GpH7-A5/GpH7-B3/GpL16-k0 = 100
Experimental: as §1, §2

[4] = biological target: T2, FcγRIIIa extracellular domain with …; assay: as above
Experimental: as §1, §2

Row | Binder | He/Con_3a [1] [%] | further results
1 | B1 | 117 | 
2 | B2 | 160 | 
3 | B3 | 101 | 
4 | B4 | 112 | 
5 | B5 | 104 | 
6 | B6 | 113 | 
7 | B7 | 107 | 
8 | B8 | 105 | 
9 | B9 | 107 | 
10 | B10 | 102 | 
11 | B11 | 109 | 
12 | B12 | 114 | 
13 | B13 |  | He_3a/2b (IIIa/IIb) [2]: 2.18 ratio; He/Con_2b (relative binding activity) [3]: 73.4 % of control; He/Con_3a (relative binding activity) [4]: 160 % of control
14 | B14 | 113 | 
15 | B15 | 101 | 
16 | B16 | 110 | 
17 | B17 | 101 | 
18 | B18 | 139 | 
19 | B19 | 181 | 
20 | B20 | 106 | 
21 | B21 | 104 | 
22 | B22 | 102 | 
23 | B23 | 112 | 
